Assay results as given in PMC11551957 (ACS Applied Materials & Interfaces, 2024).

Molecular target: T1, MPER-TM(654-709) polypeptide (HIV-1, UniProt P04578)
T1 construct: also called MPER-TMD polypeptide; MPER-TMD construct
Test: flow cytometry on cells; stable HEK293T cells expressing the antigen; 10^6 cells; Fab-mVenus variants at 2 μg/mL, 30 min, RT, FACS buffer (PBS, 0.1% FBS); mVenus fluorescence read; Env cells with or without preincubation with Ig-mD1.22 (20 μg/mL, 30 min)
Conditions: one partner purified

B1: 10E8 Fab-mVenus S65C conjugated with Fus4 (Fab, V domains shown)
VH: EVQLVESGGGLVKPGGSLRLSCSASGFDFDNAWMTWVRQPPGKGLEWVGRITGPGEGWSVDYAAPVEGRFTISRLNSINFLYLEMNNLRMEDSGLYFCARTGKYYDFWSGYPPGEEYFQDWGRGTLVTVSS
VL: SYELTQETGVSVALGRTVTITCRGDSLRSHYASWYQKKPGQAPILLFYGKNNRPSGVPDRFSGCASGNRASLTISGAQAEDDAEYYCSSRDKSGSRLSVFGGGTKLTVL
  binding result: binds

B2: 10E8 Fab-mVenus S65C conjugated with Lin3 (Fab, V domains shown)
VH: B1 VH
VL: B1 VL
  binding result: binds
